{
  "source": "patent US20250313634A1",
  "about": "(WUXI BIOLOGICS SHANGHAI, published 2025)",
  "binders": {"B1": {"name": "1.14.4 (antibody, V domains shown)", "VH": "EVQLLESGGGLVQPGGSLRLSCAASGFTFSSYAMSWVRQAPGKGLEWVSGISGSGGFTYYADSVKGRFTISRDNSKNTLYLQMNSLRAEDTAVYYCAKPPRGYNYGPFDYWGQGTLVTVSS", "VL": "SYVLTQPPSVSVAPGQTARITCGGNNIGSKSVHWYQQKPGQAPVLVVYDDSDRPSGIPERFSGSNSGNTATLTISRVEAGDEADYYCQVWDSSSDHVVFGGGTKLTVL", "notes": "Fully human monoclonal antibody with a human constant region of IgG4 isotype"}},
  "assay_in_all_cases": "capture ELISA on coated 1.14.4; relative to silent alanine substitutions",
  "key": {"[1]": {"target": "T1, hPD-L1_ECD.His point mutant N183A (human, UniProt Q9NZQ7 19-238)", "T1 construct": "extracellular domain", "T1 sequence (Q9NZQ7 19-238 N183A)": "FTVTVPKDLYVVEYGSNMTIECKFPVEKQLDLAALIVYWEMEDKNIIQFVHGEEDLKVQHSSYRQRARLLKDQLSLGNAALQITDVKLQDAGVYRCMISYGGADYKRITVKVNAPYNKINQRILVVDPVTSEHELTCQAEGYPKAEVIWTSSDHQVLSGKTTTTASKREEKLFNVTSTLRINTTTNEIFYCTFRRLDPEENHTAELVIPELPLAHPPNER", "protocol": "(§1) After interacting with the supernatant that contains quantified PD-L1 mutant or human/mouse PD-L1_ECD.His protein (Sino Biological, China), HRP conjugated anti-His antibody (1:5000; Rockland Immunochemicals, Pottstown, PA) was added as detection antibody. Absorbance was normalized according to the average of control mutants. After setting an additional cutoff to the binding fold change (<0.55), the final determined epitope residues were identified.\n(§2) The observed binding reductions most probably resulted from the instability or even collapse of hPD-L1 structure after alanine substitutions. After setting an additional cutoff to the binding fold change (<0.55), the final determined epitope residues were listed in Table 3."}, "[2]": {"target": "T2, hPD-L1_ECD.His point mutant L106A (human, UniProt Q9NZQ7 19-238)", "T2 construct": "extracellular domain", "T2 sequence (Q9NZQ7 19-238 L106A)": "as the sequence (Q9NZQ7 19-238 N183A) above, with L88A, A165N counted along it", "protocol": "as §1, §2"}, "[3]": {"target": "T3, hPD-L1_ECD.His point mutant L50A (human, UniProt Q9NZQ7 19-238)", "T3 construct": "extracellular domain", "T3 sequence (Q9NZQ7 19-238 L50A)": "as the sequence (Q9NZQ7 19-238 N183A) above, with L32A, A165N counted along it", "protocol": "as §1, §2"}, "[4]": {"target": "T4, hPD-L1_ECD.His point mutant L88A (human, UniProt Q9NZQ7 19-238)", "T4 construct": "extracellular domain", "T4 sequence (Q9NZQ7 19-238 L88A)": "as the sequence (Q9NZQ7 19-238 N183A) above, with L70A, A165N counted along it", "protocol": "as §1, §2"}, "[5]": {"target": "T5, hPD-L1_ECD.His point mutant V143A (human, UniProt Q9NZQ7 19-238)", "T5 construct": "extracellular domain", "T5 sequence (Q9NZQ7 19-238 V143A)": "as the sequence (Q9NZQ7 19-238 N183A) above, with V125A, A165N counted along it", "protocol": "as §1, §2"}, "[6]": {"target": "T6, hPD-L1_ECD.His point mutant T154A (human, UniProt Q9NZQ7 19-238)", "T6 construct": "extracellular domain", "T6 sequence (Q9NZQ7 19-238 T154A)": "as the sequence (Q9NZQ7 19-238 N183A) above, with T136A, A165N counted along it", "protocol": "as §1, §2"}, "[7]": {"target": "T7, hPD-L1_ECD.His point mutant T20A (human, UniProt Q9NZQ7 19-238)", "T7 construct": "extracellular domain", "T7 sequence (Q9NZQ7 19-238 T20A)": "as the sequence (Q9NZQ7 19-238 N183A) above, with T2A, A165N counted along it", "protocol": "as §1, §2"}, "[8]": {"target": "T8, hPD-L1_ECD.His point mutant D49A (human, UniProt Q9NZQ7 19-238)", "T8 construct": "extracellular domain", "T8 sequence (Q9NZQ7 19-238 D49A)": "as the sequence (Q9NZQ7 19-238 N183A) above, with D31A, A165N counted along it", "protocol": "as §1, §2"}, "[9]": {"target": "T9, hPD-L1_ECD.His point mutant Q91A (human, UniProt Q9NZQ7 19-238)", "T9 construct": "extracellular domain", "T9 sequence (Q9NZQ7 19-238 Q91A)": "as the sequence (Q9NZQ7 19-238 N183A) above, with Q73A, A165N counted along it", "protocol": "as §1, §2"}, "[10]": {"target": "T10, hPD-L1_ECD.His point mutant A52G (human, UniProt Q9NZQ7 19-238)", "T10 construct": "extracellular domain", "T10 sequence (Q9NZQ7 19-238 A52G)": "as the sequence (Q9NZQ7 19-238 N183A) above, with A34G, A165N counted along it", "protocol": "as §1, §2"}, "[11]": {"target": "T11, hPD-L1_ECD.His point mutant G110A (human, UniProt Q9NZQ7 19-238)", "T11 construct": "extracellular domain", "T11 sequence (Q9NZQ7 19-238 G110A)": "as the sequence (Q9NZQ7 19-238 N183A) above, with G92A, A165N counted along it", "protocol": "as §1, §2"}, "[12]": {"target": "T12, hPD-L1_ECD.His point mutant E45A (human, UniProt Q9NZQ7 19-238)", "T12 construct": "extracellular domain", "T12 sequence (Q9NZQ7 19-238 E45A)": "as the sequence (Q9NZQ7 19-238 N183A) above, with E27A, A165N counted along it", "protocol": "as §1, §2"}, "[13]": {"target": "T13, hPD-L1_ECD.His point mutant E217A (human, UniProt Q9NZQ7 19-238)", "T13 construct": "extracellular domain", "T13 sequence (Q9NZQ7 19-238 E217A)": "as the sequence (Q9NZQ7 19-238 N183A) above, with A165N, E199A counted along it", "protocol": "as §1, §2"}, "[14]": {"target": "T14, hPD-L1_ECD.His point mutant P133A (human, UniProt Q9NZQ7 19-238)", "T14 construct": "extracellular domain", "T14 sequence (Q9NZQ7 19-238 P133A)": "as the sequence (Q9NZQ7 19-238 N183A) above, with P115A, A165N counted along it", "protocol": "as §1, §2"}, "[15]": {"target": "T15, hPD-L1_ECD.His point mutant L27A (human, UniProt Q9NZQ7 19-238)", "T15 construct": "extracellular domain", "T15 sequence (Q9NZQ7 19-238 L27A)": "as the sequence (Q9NZQ7 19-238 N183A) above, with L9A, A165N counted along it", "protocol": "as §1, §2"}, "[16]": {"target": "T16, hPD-L1_ECD.His point mutant D61A (human, UniProt Q9NZQ7 19-238)", "T16 construct": "extracellular domain", "T16 sequence (Q9NZQ7 19-238 D61A)": "as the sequence (Q9NZQ7 19-238 N183A) above, with D43A, A165N counted along it", "protocol": "as §1, §2"}, "[17]": {"target": "T17, hPD-L1_ECD.His point mutant S79A (human, UniProt Q9NZQ7 19-238)", "T17 construct": "extracellular domain", "T17 sequence (Q9NZQ7 19-238 S79A)": "as the sequence (Q9NZQ7 19-238 N183A) above, with S61A, A165N counted along it", "protocol": "as §1, §2"}, "[18]": {"target": "T18, hPD-L1_ECD.His point mutant M36A (human, UniProt Q9NZQ7 19-238)", "T18 construct": "extracellular domain", "T18 sequence (Q9NZQ7 19-238 M36A)": "as the sequence (Q9NZQ7 19-238 N183A) above, with M18A, A165N counted along it", "protocol": "as §1, §2"}, "[19]": {"target": "T19, hPD-L1_ECD.His point mutant K129A (human, UniProt Q9NZQ7 19-238)", "T19 construct": "extracellular domain", "T19 sequence (Q9NZQ7 19-238 K129A)": "as the sequence (Q9NZQ7 19-238 N183A) above, with K111A, A165N counted along it", "protocol": "as §1, §2"}, "[20]": {"target": "T20, hPD-L1_ECD.His point mutant Y81A (human, UniProt Q9NZQ7 19-238)", "T20 construct": "extracellular domain", "T20 sequence (Q9NZQ7 19-238 Y81A)": "as the sequence (Q9NZQ7 19-238 N183A) above, with Y63A, A165N counted along it", "protocol": "as §1, §2"}, "[21]": {"target": "T21, hPD-L1_ECD.His point mutant E205A (human, UniProt Q9NZQ7 19-238)", "T21 construct": "extracellular domain", "T21 sequence (Q9NZQ7 19-238 E205A)": "as the sequence (Q9NZQ7 19-238 N183A) above, with A165N, E187A counted along it", "protocol": "as §1, §2"}, "[22]": {"target": "T22, hPD-L1_ECD.His point mutant R113A (human, UniProt Q9NZQ7 19-238)", "T22 construct": "extracellular domain", "T22 sequence (Q9NZQ7 19-238 R113A)": "as the sequence (Q9NZQ7 19-238 N183A) above, with R95A, A165N counted along it", "protocol": "as §1, §2"}, "[23]": {"target": "T23, hPD-L1_ECD.His point mutant Q100A (human, UniProt Q9NZQ7 19-238)", "T23 construct": "extracellular domain", "T23 sequence (Q9NZQ7 19-238 Q100A)": "as the sequence (Q9NZQ7 19-238 N183A) above, with Q82A, A165N counted along it", "protocol": "as §1, §2"}, "[24]": {"target": "T24, hPD-L1_ECD.His point mutant R212A (human, UniProt Q9NZQ7 19-238)", "T24 construct": "extracellular domain", "T24 sequence (Q9NZQ7 19-238 R212A)": "as the sequence (Q9NZQ7 19-238 N183A) above, with A165N, R194A counted along it", "protocol": "as §1, §2"}, "[25]": {"target": "T25, hPD-L1_ECD.His point mutant P216A (human, UniProt Q9NZQ7 19-238)", "T25 construct": "extracellular domain", "T25 sequence (Q9NZQ7 19-238 P216A)": "as the sequence (Q9NZQ7 19-238 N183A) above, with A165N, P198A counted along it", "protocol": "as §1, §2"}, "[26]": {"target": "T26, hPD-L1_ECD.His point mutant K189A (human, UniProt Q9NZQ7 19-238)", "T26 construct": "extracellular domain", "T26 sequence (Q9NZQ7 19-238 K189A)": "as the sequence (Q9NZQ7 19-238 N183A) above, with A165N, K171A counted along it", "protocol": "as §1, §2"}},
  "data": [
    {"binder": "B1", "values": [
      {"measurement": "fold change", "setting": "[1]", "value": 0.944, "unit": "fold"},
      {"measurement": "fold change", "setting": "[2]", "value": 0.732, "unit": "fold"},
      {"measurement": "fold change", "setting": "[3]", "value": 0.614, "unit": "fold"},
      {"measurement": "fold change", "setting": "[4]", "value": 1.1, "unit": "fold"},
      {"measurement": "fold change", "setting": "[5]", "value": 1.02, "unit": "fold"},
      {"measurement": "fold change", "setting": "[6]", "value": 0.888, "unit": "fold"},
      {"measurement": "fold change", "setting": "[7]", "value": 0.974, "unit": "fold"},
      {"measurement": "fold change", "setting": "[8]", "value": 0.603, "unit": "fold"},
      {"measurement": "fold change", "setting": "[9]", "value": 0.906, "unit": "fold"},
      {"measurement": "fold change", "setting": "[10]", "value": 0.622, "unit": "fold"},
      {"measurement": "fold change", "setting": "[11]", "value": 0.632, "unit": "fold"},
      {"measurement": "fold change", "setting": "[12]", "value": 0.942, "unit": "fold"},
      {"measurement": "fold change", "setting": "[13]", "value": 0.823, "unit": "fold"},
      {"measurement": "fold change", "setting": "[14]", "value": 0.664, "unit": "fold"},
      {"measurement": "fold change", "setting": "[15]", "value": 0.949, "unit": "fold"},
      {"measurement": "fold change", "setting": "[16]", "value": 0.372, "unit": "fold"},
      {"measurement": "fold change", "setting": "[17]", "value": 0.962, "unit": "fold"},
      {"measurement": "fold change", "setting": "[18]", "value": 1.04, "unit": "fold"},
      {"measurement": "fold change", "setting": "[19]", "value": 0.586, "unit": "fold"},
      {"measurement": "fold change", "setting": "[20]", "value": 0.692, "unit": "fold"},
      {"measurement": "fold change", "setting": "[21]", "value": 0.801, "unit": "fold"},
      {"measurement": "fold change", "setting": "[22]", "value": 0.161, "unit": "fold"},
      {"measurement": "fold change", "setting": "[23]", "value": 1.01, "unit": "fold"},
      {"measurement": "fold change", "setting": "[24]", "value": 0.87, "unit": "fold"},
      {"measurement": "fold change", "setting": "[25]", "value": 0.563, "unit": "fold"},
      {"measurement": "fold change", "setting": "[26]", "value": 0.759, "unit": "fold"}
    ]}
  ]
}
